{"source": "FireProtDB (doi:10.1038/s41598-020-57873-3)", "parents": {"B1": {"name": "I144P, Q8GB52 (parent)", "chain": "MLKKVLSCCIAATFGIYSASSLAQSSVINSTENSQQPIAPLVLASSDDAITDRYIVVLKQPQMLMNDAAGLQQFTQQTVGLMANSFSIKTDDVFDSSIIGFVANLDALQLKQLRRDSRVEYIEQDQILSIDPVVSNEAVQSNAIWGLDRIDQRNLPLDRNYNANFDGFGVTAYVIDTGVNNNHEEFGGRSVSGYDFVDNDADSSDCNGHGTHVAGTIGGSQYGVAKNVNIVGVRVLSCSGSGTTSGVISGVDWVAQNASGPSVANMSLGGGQSTALDSAVQGAIQSGVSFMLAAGNSNADACNTSPARVPSGVTVGSTTSSDSRSSFSNWGSCVDLFAPGSQIKSAWYDGGYKTISGTSMATPHVAGVAALYLQENNGLTPLQLTGLLNSRASENKVSDTRGTTNKLLYSLADSGCEPDCGGPTPGPDPDGKLVSGVPVNGLSGSRGQKDYFYMDLQQGQQLTVVTIGGTGDADLYLRFGDKPTLNTWDCRPYRSGNSETCTVNVTQSGRYHVMLNAYSAYSGLTLQANF"}}, "variants_of": "B1", "settings": "Vibrio sp. PA-44, pH 8.6, Thermal, structure 1SH7, whole UniProt chain shown", "key": {"[1]": {"settings": "CD, Glycine 25 mM, NaCl and CaCl2 100 mM and 15 mM"}, "[2]": {"settings": "CD, glycine, Nacl / Cacl2 100000 / 15000, transition: 2, reversible: no"}, "[3]": {"settings": "DSC, Glycine 25 mM, NaCl and CaCl2 100 mM and 15 mM"}, "[4]": {"settings": "DSC, glycine, Nacl / Cacl2 100000 / 15000, transition: 2, reversible: no"}}}
{"variant": "I144P", "values": [{"measurement": "Tm", "setting": "[1]", "result": 65.1, "unit": "°C"}, {"measurement": "change of melting temperature, mutant - wild type (higher = more stable)", "setting": "[1]", "result": 3.2, "unit": "°C"}, {"measurement": "Tm", "setting": "[2]", "result": 65.1, "unit": "°C"}, {"measurement": "change of melting temperature, mutant - wild type (higher = more stable)", "setting": "[2]", "result": 3.2, "unit": "°C"}, {"measurement": "Tm", "setting": "[3]", "result": 65.7, "unit": "°C"}, {"measurement": "change of melting temperature, mutant - wild type (higher = more stable)", "setting": "[3]", "result": 1.8, "unit": "°C"}, {"measurement": "unfolding enthalpy (calorimetric)", "setting": "[3]", "result": 137, "unit": "kcal/mol"}, {"measurement": "Tm", "setting": "[4]", "result": 65.7, "unit": "°C"}, {"measurement": "change of melting temperature, mutant - wild type (higher = more stable)", "setting": "[4]", "result": 1.8, "unit": "°C"}, {"measurement": "unfolding enthalpy (calorimetric)", "setting": "[4]", "result": 136, "unit": "kcal/mol"}]}
{"variant": "N142P I144P T404P", "values": [{"measurement": "Tm", "setting": "[1]", "result": 69.2, "unit": "°C"}, {"measurement": "change of melting temperature, mutant - wild type (higher = more stable)", "setting": "[1]", "result": 7.3, "unit": "°C"}, {"measurement": "Tm", "setting": "[2]", "result": 69.2, "unit": "°C"}, {"measurement": "change of melting temperature, mutant - wild type (higher = more stable)", "setting": "[2]", "result": 7.3, "unit": "°C"}, {"measurement": "Tm", "setting": "[3]", "result": 73.6, "unit": "°C"}, {"measurement": "change of melting temperature, mutant - wild type (higher = more stable)", "setting": "[3]", "result": 9.7, "unit": "°C"}, {"measurement": "unfolding enthalpy (calorimetric)", "setting": "[3]", "result": 167, "unit": "kcal/mol"}, {"measurement": "Tm", "setting": "[4]", "result": 73.6, "unit": "°C"}, {"measurement": "change of melting temperature, mutant - wild type (higher = more stable)", "setting": "[4]", "result": 9.7, "unit": "°C"}, {"measurement": "unfolding enthalpy (calorimetric)", "setting": "[4]", "result": 166, "unit": "kcal/mol"}]}
{"variant": "N142P", "values": [{"measurement": "Tm", "setting": "[1]", "result": 64.8, "unit": "°C"}, {"measurement": "change of melting temperature, mutant - wild type (higher = more stable)", "setting": "[1]", "result": 2.9, "unit": "°C"}, {"measurement": "Tm", "setting": "[3]", "result": 66.8, "unit": "°C"}, {"measurement": "change of melting temperature, mutant - wild type (higher = more stable)", "setting": "[3]", "result": 2.9, "unit": "°C"}, {"measurement": "unfolding enthalpy (calorimetric)", "setting": "[3]", "result": 128, "unit": "kcal/mol"}, {"measurement": "Tm", "setting": "[4]", "result": 66.8, "unit": "°C"}, {"measurement": "change of melting temperature, mutant - wild type (higher = more stable)", "setting": "[4]", "result": 2.9, "unit": "°C"}, {"measurement": "unfolding enthalpy (calorimetric)", "setting": "[4]", "result": 127, "unit": "kcal/mol"}]}
{"variant": "N142P I144P N377P", "values": [{"measurement": "Tm", "setting": "[1]", "result": 68.8, "unit": "°C"}, {"measurement": "change of melting temperature, mutant - wild type (higher = more stable)", "setting": "[1]", "result": 6.9, "unit": "°C"}, {"measurement": "Tm", "setting": "[2]", "result": 68.8, "unit": "°C"}, {"measurement": "change of melting temperature, mutant - wild type (higher = more stable)", "setting": "[2]", "result": 6.9, "unit": "°C"}, {"measurement": "Tm", "setting": "[3]", "result": 72, "unit": "°C"}, {"measurement": "change of melting temperature, mutant - wild type (higher = more stable)", "setting": "[3]", "result": 8.1, "unit": "°C"}, {"measurement": "unfolding enthalpy (calorimetric)", "setting": "[3]", "result": 163, "unit": "kcal/mol"}, {"measurement": "Tm", "setting": "[4]", "result": 72, "unit": "°C"}, {"measurement": "change of melting temperature, mutant - wild type (higher = more stable)", "setting": "[4]", "result": 8.1, "unit": "°C"}, {"measurement": "unfolding enthalpy (calorimetric)", "setting": "[4]", "result": 162, "unit": "kcal/mol"}]}
{"variant": "N377P", "values": [{"measurement": "Tm", "setting": "[2]", "result": 60.7, "unit": "°C"}, {"measurement": "change of melting temperature, mutant - wild type (higher = more stable)", "setting": "[2]", "result": -1.2, "unit": "°C"}, {"measurement": "Tm", "setting": "[3]", "result": 63.6, "unit": "°C"}, {"measurement": "change of melting temperature, mutant - wild type (higher = more stable)", "setting": "[3]", "result": -0.3, "unit": "°C"}, {"measurement": "unfolding enthalpy (calorimetric)", "setting": "[3]", "result": 133, "unit": "kcal/mol"}, {"measurement": "Tm", "setting": "[4]", "result": 63.6, "unit": "°C"}, {"measurement": "change of melting temperature, mutant - wild type (higher = more stable)", "setting": "[4]", "result": -0.3, "unit": "°C"}, {"measurement": "unfolding enthalpy (calorimetric)", "setting": "[4]", "result": 133, "unit": "kcal/mol"}]}
{"variant": "N142P I144P N377P T404P", "values": [{"measurement": "Tm", "setting": "[1]", "result": 72.1, "unit": "°C"}, {"measurement": "change of melting temperature, mutant - wild type (higher = more stable)", "setting": "[1]", "result": 10.2, "unit": "°C"}, {"measurement": "Tm", "setting": "[2]", "result": 72.1, "unit": "°C"}, {"measurement": "change of melting temperature, mutant - wild type (higher = more stable)", "setting": "[2]", "result": 10.2, "unit": "°C"}, {"measurement": "Tm", "setting": "[3]", "result": 77.2, "unit": "°C"}, {"measurement": "change of melting temperature, mutant - wild type (higher = more stable)", "setting": "[3]", "result": 13.3, "unit": "°C"}, {"measurement": "unfolding enthalpy (calorimetric)", "setting": "[3]", "result": 164, "unit": "kcal/mol"}, {"measurement": "Tm", "setting": "[4]", "result": 77.2, "unit": "°C"}, {"measurement": "change of melting temperature, mutant - wild type (higher = more stable)", "setting": "[4]", "result": 13.3, "unit": "°C"}, {"measurement": "unfolding enthalpy (calorimetric)", "setting": "[4]", "result": 163, "unit": "kcal/mol"}]}
{"variant": "N142P I144P", "values": [{"measurement": "Tm", "setting": "[1]", "result": 67.8, "unit": "°C"}, {"measurement": "change of melting temperature, mutant - wild type (higher = more stable)", "setting": "[1]", "result": 5.9, "unit": "°C"}, {"measurement": "Tm", "setting": "[2]", "result": 67.8, "unit": "°C"}, {"measurement": "change of melting temperature, mutant - wild type (higher = more stable)", "setting": "[2]", "result": 5.9, "unit": "°C"}, {"measurement": "Tm", "setting": "[3]", "result": 72, "unit": "°C"}, {"measurement": "change of melting temperature, mutant - wild type (higher = more stable)", "setting": "[3]", "result": 8.1, "unit": "°C"}, {"measurement": "unfolding enthalpy (calorimetric)", "setting": "[3]", "result": 155, "unit": "kcal/mol"}, {"measurement": "Tm", "setting": "[4]", "result": 72, "unit": "°C"}, {"measurement": "change of melting temperature, mutant - wild type (higher = more stable)", "setting": "[4]", "result": 8.1, "unit": "°C"}, {"measurement": "unfolding enthalpy (calorimetric)", "setting": "[4]", "result": 154, "unit": "kcal/mol"}]}
{"variant": "T404P", "values": [{"measurement": "Tm", "setting": "[1]", "result": 61.6, "unit": "°C"}, {"measurement": "change of melting temperature, mutant - wild type (higher = more stable)", "setting": "[1]", "result": -0.3, "unit": "°C"}, {"measurement": "Tm", "setting": "[3]", "result": 64.5, "unit": "°C"}, {"measurement": "change of melting temperature, mutant - wild type (higher = more stable)", "setting": "[3]", "result": 0.6, "unit": "°C"}, {"measurement": "unfolding enthalpy (calorimetric)", "setting": "[3]", "result": 108, "unit": "kcal/mol"}, {"measurement": "Tm", "setting": "[4]", "result": 64.5, "unit": "°C"}, {"measurement": "change of melting temperature, mutant - wild type (higher = more stable)", "setting": "[4]", "result": 0.6, "unit": "°C"}, {"measurement": "unfolding enthalpy (calorimetric)", "setting": "[4]", "result": 108, "unit": "kcal/mol"}]}
